Laboratory results reported in patent publication US20240101645A1 (HENRY M JACKSON FOUNDATION FOR THE ADVANCEMENT OF MILITARY …, published 2024).

Assays:
[1] = target: T1, HCoV-229E spike antigens (bead panel) (HCoV-229E, UniProt P15423 16-1115); test: multiplex bead assay
T1 sequence: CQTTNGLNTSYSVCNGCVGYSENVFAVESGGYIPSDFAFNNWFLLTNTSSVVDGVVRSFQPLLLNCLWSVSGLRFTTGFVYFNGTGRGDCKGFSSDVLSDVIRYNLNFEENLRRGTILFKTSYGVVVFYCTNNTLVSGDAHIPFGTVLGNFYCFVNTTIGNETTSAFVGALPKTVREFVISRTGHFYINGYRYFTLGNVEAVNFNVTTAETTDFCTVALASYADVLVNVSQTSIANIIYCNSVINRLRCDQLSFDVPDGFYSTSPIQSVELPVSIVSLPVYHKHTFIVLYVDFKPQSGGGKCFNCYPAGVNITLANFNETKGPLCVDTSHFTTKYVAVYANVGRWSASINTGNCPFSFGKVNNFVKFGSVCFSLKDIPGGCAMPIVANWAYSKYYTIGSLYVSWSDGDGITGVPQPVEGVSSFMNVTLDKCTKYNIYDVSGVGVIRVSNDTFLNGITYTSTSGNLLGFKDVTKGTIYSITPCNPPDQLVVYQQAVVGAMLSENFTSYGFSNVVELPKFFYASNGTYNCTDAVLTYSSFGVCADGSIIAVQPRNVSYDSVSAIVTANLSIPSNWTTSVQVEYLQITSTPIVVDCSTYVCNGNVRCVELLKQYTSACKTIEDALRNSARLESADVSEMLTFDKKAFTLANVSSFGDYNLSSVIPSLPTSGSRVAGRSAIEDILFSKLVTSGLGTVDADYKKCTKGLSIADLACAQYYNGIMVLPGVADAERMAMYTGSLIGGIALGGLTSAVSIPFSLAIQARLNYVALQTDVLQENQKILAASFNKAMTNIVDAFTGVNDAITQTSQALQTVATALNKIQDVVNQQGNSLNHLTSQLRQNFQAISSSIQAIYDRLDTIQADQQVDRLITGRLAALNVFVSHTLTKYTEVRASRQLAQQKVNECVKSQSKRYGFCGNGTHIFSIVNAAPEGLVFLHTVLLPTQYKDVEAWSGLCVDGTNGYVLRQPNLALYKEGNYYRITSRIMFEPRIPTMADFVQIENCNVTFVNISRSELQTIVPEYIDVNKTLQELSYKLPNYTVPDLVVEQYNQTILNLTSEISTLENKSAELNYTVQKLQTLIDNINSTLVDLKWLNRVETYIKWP

[2] = target: T2, HCoV-OC43 spike antigens (bead panel) (HCoV-OC43, UniProt P36334 14-1297); test: multiplex bead assay
T2 sequence: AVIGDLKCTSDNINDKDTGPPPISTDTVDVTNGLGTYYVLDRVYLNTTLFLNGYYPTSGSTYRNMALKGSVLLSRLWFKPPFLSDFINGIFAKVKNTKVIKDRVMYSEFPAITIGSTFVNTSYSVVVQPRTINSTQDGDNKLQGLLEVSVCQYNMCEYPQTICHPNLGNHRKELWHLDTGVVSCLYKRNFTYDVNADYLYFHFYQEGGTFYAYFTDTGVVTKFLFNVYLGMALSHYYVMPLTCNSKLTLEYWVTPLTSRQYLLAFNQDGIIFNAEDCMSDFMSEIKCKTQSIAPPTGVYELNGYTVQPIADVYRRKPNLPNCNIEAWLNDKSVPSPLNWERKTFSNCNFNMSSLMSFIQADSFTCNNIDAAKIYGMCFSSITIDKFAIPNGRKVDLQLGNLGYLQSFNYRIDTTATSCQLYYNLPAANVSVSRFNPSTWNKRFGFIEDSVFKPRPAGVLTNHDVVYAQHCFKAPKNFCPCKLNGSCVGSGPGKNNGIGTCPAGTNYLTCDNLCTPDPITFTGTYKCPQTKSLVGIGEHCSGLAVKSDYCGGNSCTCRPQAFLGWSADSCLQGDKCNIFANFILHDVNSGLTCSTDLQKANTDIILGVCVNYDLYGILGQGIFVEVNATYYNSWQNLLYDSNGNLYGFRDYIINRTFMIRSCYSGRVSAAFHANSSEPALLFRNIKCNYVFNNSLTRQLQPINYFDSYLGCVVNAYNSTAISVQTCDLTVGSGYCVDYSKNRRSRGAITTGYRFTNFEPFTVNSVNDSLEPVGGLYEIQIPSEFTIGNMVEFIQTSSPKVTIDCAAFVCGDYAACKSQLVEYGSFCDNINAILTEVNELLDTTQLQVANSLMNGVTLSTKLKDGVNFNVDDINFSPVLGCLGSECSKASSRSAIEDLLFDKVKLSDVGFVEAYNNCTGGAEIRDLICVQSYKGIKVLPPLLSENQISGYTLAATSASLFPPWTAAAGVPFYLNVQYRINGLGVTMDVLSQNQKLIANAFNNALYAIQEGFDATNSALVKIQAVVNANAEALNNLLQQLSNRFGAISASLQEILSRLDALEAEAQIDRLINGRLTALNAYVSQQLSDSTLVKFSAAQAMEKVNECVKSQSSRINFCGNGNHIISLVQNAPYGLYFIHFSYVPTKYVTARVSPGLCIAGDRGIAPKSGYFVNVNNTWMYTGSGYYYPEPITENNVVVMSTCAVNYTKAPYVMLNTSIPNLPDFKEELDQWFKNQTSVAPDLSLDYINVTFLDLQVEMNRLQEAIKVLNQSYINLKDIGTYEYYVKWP

[3] = target: SARS-CoV-2 S on pseudovirions (Wuhan Hu-1 / IL1/2020, last 18 amino acids removed) (SARS-CoV-2, UniProt P0DTC2 14-1273); test: cell-based or functional assay

| Binder | binding result [1] | binding result [2] | Mean IC50, pSV neutralization [3] | Mean IC80, pSV neutralization [3] |
| --- | --- | --- | --- | --- |
| COV_2039 (antibody, V domains shown, human IgG1) VH: QVQLVQSGAEVKKPGASVKVSCKVSGYMLIELSMHWVRQAPGKGLEWMGGFDPEDAETIYAQEFQGRVTMTEDTSTDTAYMELSSLRSEDTAVYYCTTGPAVTNRPADYWGPGTLVTVSS VL: QSVLTQPPSVSGAPGQRVTISCTGSSSNIGASYDVHWYQQLPGTAPKLLIYANSNRPSGVPDRFSGSKSGTSASLAITGLQAEDEADYYCQSYDSSLSYSVVFGGGTKLTVL | no binding | no binding | 0.01 µg/ml | 1.8 µg/ml |
| COV_2025 (antibody, V domains shown, human IgG1) VH: QVHLVQSGAEVKKPGASVKVSCKVSGYTLVELSVHWVRQAPAKGLEWIGGFDPEDGETIYAQKFQGRVTMTEDTSTDTAYMELTNLRSEDTAVYYCVTSQPFVSPNWFDPWGQGTLVTVSS VL: QSALTQPASVSGSPGQSITISCTGTSRDVGAYNYVSWYQQHPGKAPKLMIYEVTTRPSGVSNRFSGSKSGNTASLTISGLQAEDEADYYCSSYTGSRTLVFGTGTKVTVL | no binding | no binding | 0.02 µg/ml | 0.49 µg/ml |
| COV_2027 (antibody, V domains shown, human IgG1) VH: EVQLVESGGGLIQPGGSLRLSCAASGFSVSTNYMSWVRQAPGKGLEWVSIIYSGGGTYYADSVKGRFTISRDTSENTLYLQMNSLRAEDTAVYYCASFLVGATGQPWYWGQGTLVTVSS VL: not shown | no binding | no binding | 0.16 µg/ml | 0.45 µg/ml |
| COV_2028 (antibody, V domains shown, human IgG1) VH: QVQLQESGPGLVKPSGTLSLTCVVSGGSISSSNWWSWVRQPPGKGLEWIGEIYHSGSTNYNPSLKSRVTISVDKSKNQFSLRLTSVTAADTAVYYCARGWNYDYWGQGTLVTVSS VL: QSALTQPASVSGSPGQSITIACTGTSSDVGSYNLVSWYQQHPGKAPKLMIYEVSKRPSGLSNRFSGSKSGNTASLTISGLQAEDEADYYCYSYAGSSTWVFGGGTKLTVL | no binding | no binding | ≥ 25 µg/ml | ≥ 25 µg/ml |
| COV_2037 (antibody, V domains shown, human IgG1) VH: QVQLVQSGAEVKKPGASVKVSCKVSGYTLTELSMHWVRQAPGKGLEWMGGFDPEDAETIYAQKFQGRVTMTEDTSTDTAYMELSSLRSEDTAVYYCATAGAITGTPTNYSYYYGMDFWGQGTTVTVSS VL: not shown | no binding | no binding | 0.07 µg/ml | ≥ 25 µg/ml |
| COV_2014 (antibody, V domains shown, human IgG1) VH: QVQLVQSGAEVKKPGASVKVSCKVSGYTLTELSMHWVRQAPGKGLEWMGGFDPEDGETIYAQKFQGRVTMTEDTSTDTAYMELSSLRSEDTAVYYCATGKINYYDSSGYYGTFDYWGQGTLVTVSS VL: AIQLTQSPSSLSASVGDRVTITCRASQGISSYLAWYQQKPGKAPKLLIYAASTLQSGVPSRFSGSGSGTDFTLTISSLQPEDFATYYCQQLNSYHLTFGQGTRLEIK | no binding | no binding | ≥ 25 µg/ml | ≥ 25 µg/ml |
| COV_2054 (antibody, V domains shown, human IgG1) VH: EVQLVESGGGVLQPGRSLRLSCAASGFTFNNYALHWVRQAPGKGLEWVAVISYDGSSKYYADSVRGRLTISRDNSRNTLYLQMNSLRPEDTAIYYCARDGDGLWLGESFYFDDWGQGTLVTVSS VL: DIQMTQSPSTLSASVGDRVIITCRASQSISSWLAWYQQKPGKAPKLLIYEASTLQSGVPSRFSGSGSGTEFTLTISSLQPDDSATYYCQQYNSYPVHFSQGTKLEIK | no binding | no binding | ≥ 25 µg/ml | ≥ 25 µg/ml |
| COV_3077 (antibody, V domains shown, human IgG1) VH: QVQLQESGPGLVKPSETLSLTCAVSGYSISSGYYWGWIRQPPGKGLEWIGSIYHSGSTYYNPSLKSRVTISVDTSKNQFSLKLSSVTAADTAVYYCARALYDAFDIWGQGTMVTVSS VL: not shown | no binding | no binding | ≥ 25 µg/ml | ≥ 25 µg/ml |
| COV_2035 (antibody, V domains shown, human IgG1) VH: QVQLVQSGAEVKKPGASVKVSCKVSGYTLPELSIHWVRQAPGKGLEWLGGFDPEDGKIIYAQKFQGRVTMTEDTSTDTAYMELSSLRSEDTAVYYCATSPAVVERGWFDPWGQGTLVTVSS VL: QSALTQPPSASGSPGQSVTISCTGTSSDVGGYNYVSWYQQHPGKAPKLMIYEVSKRPSGVPDRFSGSKSGNMASLTVSGLQAEDEANYYCSSYAGSKRVFGGGTKLTVL | no binding | no binding | 0.04 µg/ml | ≥ 25 µg/ml |
| COV_2057 (antibody, V domains shown, human IgG1) VH: EVQLVQSGAEVKKPGESLKISCKGSGYSFISYWIAWVRQMPGKGLEWMGIIYPGDSDTTYSPSFQGQVTISADKSISTAYLQWSSLKASDTAIYYCARLLYYSDSSPLDSWGQGTLVTVSS VL: DIQMTQSPSSLSASVGDRVTITCRASQSISTYLNWYQQKPGKAPNLLIYAASSLQSGVPSRFSGSGSGTDFTLTISSLQPEDFATYYCQQSHSTPRTFGPGTKVDIK | no binding | no binding | 0.97 µg/ml | 8.99 µg/ml |
| COV_2174 (antibody, V domains shown, human IgG1) VH: EVQLAESGGGLVKPGGSLRLSCAASGFTFSDYYMSWIRQAPGKGLEWVSYISSSGSTIYYADSVKGRFTISRDNAKNSLYLQMNSLRAEDTAVYYCARDWSVVVVPAAPAVDVWGQGTTVTVSS VL: DIQMTQSPSSLSASVGDRVTITCRASQGISNYLAWFQQKPGKAPKSLIYAASSLQSGVPSKFSGSGSGTDFTLTISSLQPEDFATYYCQQYNSYPLTFGGGTKVEIKR | no binding | no binding | 0.502 µg/ml | 2.04 µg/ml |
